According to the supplement of paper PMC9170038:

System: MS2 coat protein
Test: apparent KD of MS2 coat protein; designed switch direction (-1 OFF switch, 1 ON switch): -1; higher = weaker reporter binding
How it was run: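 Each step of the titration lasted 0.8–1.5 h at the lowest concentration and 10–20 min at the highest. The protein, SNAP-549-labelled MS2 coat protein, went from 0.7 or 1.5 nM doubling to 3 µM over RNA switches transcribed on Illumina chips by stalled E. coli RNA polymerase. Normalised cluster fluorescence was curve-fitted, and the per-design median over clusters is given as apparent KD.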

[1] = input ligand: microRNA oligo, concentration not stated
[2] = Eterna round: R95, input ligand: FMN 200 uM
[3] = Eterna round: R95, input ligand: microRNA oligo, concentration not stated
[4] = Eterna round: R95, input ligand: none

Row | Sequence | apparent KD of MS2 coat protein (input ligand: FMN 200 uM) | apparent KD of MS2 coat protein [1] | apparent KD of MS2 coat protein (input ligand: none) | apparent KD of MS2 coat protein [2] | apparent KD of MS2 coat protein [3] | apparent KD of MS2 coat protein [4]
1 | UACAUGAGGAUCACCCAUGUUUUGUCGUGUAUGGUACCCGUUUAGGAUAUCGUGUUAUUGGACCGCGAGAAGGAGAGUAUCAUU [Excl-NG3-LRO05] (Eterna round: R96, puzzle: Exclusion NG 3) | 24 nM | 30 nM | 31.6 nM |  |  | 
2 | UACAUGAGGAUCACCCAUGUUUUGUCGUGUAUGGUAUUUAUCUAGGAUAUCAAUUUAAUUAUUUAUGAGAAGGAGAAUAUUAAU [JMF's solution 17] (Eterna round: R96, puzzle: Exclusion NG 3) |  | 29.8 nM |  |  |  | 
3 | UACAUGAGGAUCACCCAUGUUUUGUCGUGUAUGGUAUUUAUCUAGGAUAUCAAUUUGUAUAUUUAUGAGAAGGAGAAUAUUAAU [JMF's solution 67] (Eterna round: R96, puzzle: Exclusion NG 3) |  | 30.7 nM |  |  |  | 
4 | UACAUGAGGAUCACCCAUGUUUUGUCGUGUAUGGUAUUUAUCUAGGAUAUCAUUUAAUUUAGUUAUGAGAAGGAGAAUAUUAAU [JMF's solution 85] (Eterna round: R96, puzzle: Exclusion NG 3) | 31.3 nM | 17 nM | 27.8 nM |  |  | 
5 | UACAUGAGGAUCACCCAUGUUUUGUCGUGUAUGGUAUUUAUCUAGGAUAUCAUUUUAUUUAGGUAUGAGAAGGAGAAUAUUAAU [JMF's solution 93] (Eterna round: R96, puzzle: Exclusion NG 3) |  | 23.9 nM |  |  |  | 
6 | UACCGGCGGACCGAAGCUUUUUGCUCGUCUUAUACUACAACAUGAGGAUCACCCAUGUGGUGGUGGUCCGUUGUAGU [JL ViennaUCT Bitein mod 4] (puzzle: Sensor v3, turn-off variant 2) |  |  |  | 20.2 nM | 15.7 nM | 13.5 nM
7 | UACCUAAUGGGUGUUUCUCACAUGAGGAUCACCCAUGUCACUAGCUUUUUGCUCAUCUUAUCGAAACACCCUUAGUC [Birerage] (puzzle: Sensor v3, turn-off variant 1) |  |  |  | 21.3 nM | 10.2 nM | 20.8 nM
8 | UACCUAUAGUAAGGAUAUCAUUGCGAUUAGCUAUGAGAAGGUACACAUGAGGAUCACCCAUGUCCUCCAAUUAACCGAAAGGUA [7th something] (Eterna round: R96, puzzle: Exclusion NG 1) | 318 nM | 170 nM | 178 nM |  |  | 
9 | UACCUGAGGCAAAGCUUUAGGUAUACAUGAGGAUCACCCAUGUAGGAUAUGGUAGGCUUUGCUUACCAGAAGGACAUGUUAAUU [Mat - Exclusion NG 3 - Mod of JL - D32] (Eterna round: R96, puzzle: Exclusion NG 3) | 161 nM | 30.4 nM | 39.6 nM |  |  | 
10 | UACGAAUUAGGAUAUGCAAUGGGCUCGCUUUCCUUCGAUAAACUUGAGGAUCACCCAAGUAGAAGGAAUUUGUA [Mod 37 - Jieux - Exclusion 2] (Eterna round: R97, puzzle: Exclusion 2) | 14.8 nM |  | 12.9 nM |  |  | 
11 | UACGAGUCAGGAUAUUGGGCAAUAGCAUUACGGAACGAUCACAAGAAGGGACAUGAGGAUCACCCAUGUUAUAU [Candy Rainbow 3] (puzzle: Exclusion 4) |  |  |  |  | 22.3 nM | 
12 | UACUGGACAGGAUAUGUUCUUGAGCACUUGAGGAUCACCCAAGUCAUCAAGAACUCAGGCACAGAAGGGUUUAUGC [salish99_ex5_r4_007] (Eterna round: R97, puzzle: Exclusion 5) | 19.1 nM |  | 14 nM |  |  | 
13 | UACUUCCGAGGAUAUACAUGAGGAUCACCCAUGUGCUUCAGCAUCGAAAGAUGCAUGGGUAGAAGGCGGUAGUU [LRO-Excl3-19] (puzzle: Exclusion 3) |  |  |  |  | 36.6 nM | 
14 | UAGAAAUUCAACGAGUGAAACAUGAGGAUCACCCAUGUGGUGGUAAGGAACAAGCUUUUUGCACGUACUUAUAAGAA [JR_SV3TOV1_Sub003] (puzzle: Sensor v3, turn-off variant 1) |  |  |  | 239 nM | 422 nM | 437 nM
15 | UAGAGACAUGAGGAUCACCCAUGUGAGGAUAUAGAGGAAGAUUGCGAGAGGGAGAGGACUAGAAGGCACAGUGA [JR_Exclu1_Sub034] (puzzle: Exclusion 1) |  |  |  | 31.4 nM | 35.2 nM | 47.5 nM
16 | UAGAUGUGAGGAUAUGGUAAAGAUAAGAUGAUGAAAGAACUCCAGAAGGCACAUGAGGAUCACCCAUGUAGAUG [JL-ex4-2.15 Jieux mod] (puzzle: Exclusion 4) |  |  |  | 78.1 nM | 22.3 nM | 26 nM
17 | UAGCAAGCAAUAAGAUCCCACAUGAGGAUCACCCAUGUGCUCGUCUUAUAAAAGGUUUCGACGAAAACGUCGAGACC [Eli 91 v28] (Eterna round: R97, puzzle: Sensor, turn-off variant 1) | 19.8 nM |  | 16 nM |  |  | 
